# Target: EGFR on the cell surface (Huh-7, U87MG, MDA-MB-231) (human) (UniProt P00533)
# Experiment: flow cytometry
# Conditions: 2'-OMe on U, G, C, all A (positions 8, 14, 19, 21, 24) are DNA, Binding buffer: serum-free DMEM + 100 ug/mL tRNA, aptamers denatured 95 C 5 min, snap cooled on ice 10 min, ELONA 1 h (temperature not given)
sequence,measurement,setting,value
UGCUUUGAUGUCGAUUCGACAGGAGGC [CL-4RNV616],Kd,Huh-7 cells,0.0712 µM
same,Kd,MDA-MB-231 cells,0.0898 µM
same,Kd,U87MG cells,0.112 µM
